Measurements reported in PMC4598299.

Target: hThumb WT (hTERT thumb/CTE domain) (human, UniProt O14746 943-1132)
Experiment: fluorescence polarization

Chain of hThumb WT (hTERT thumb/CTE domain) (O14746 943-1132): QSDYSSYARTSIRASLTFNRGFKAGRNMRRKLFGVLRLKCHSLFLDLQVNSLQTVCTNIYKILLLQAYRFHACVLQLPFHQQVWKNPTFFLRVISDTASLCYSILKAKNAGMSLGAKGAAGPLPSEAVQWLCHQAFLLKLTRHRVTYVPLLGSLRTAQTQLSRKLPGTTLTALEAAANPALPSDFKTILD

B1: hTER CR4/5 (structured_RNA)
RNA: CCCGCCUGGAGGCCGCGGUCCGCCGCGAAGAGUUGGGCUCUGUCAGCCGCGGG
Q: Which Kd does the source give for B1 here?
A: The Kd was about 400 nM.
